# The supplement of paper PMC9732359
# ± gives the uncertainty stated by the source.
# Assay: protein stability index of a GFP-peptide fusion (yeast GPS) (PSI 1-4); higher = more stable; sorted into four equal gates, so the index is relative within each strain
# Summary of the method: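 The protein stability index of a peptide was calculated by multiplying its read frequency in each gate by that gate's number and adding the products. The peptides were tiled 17-residue stretches of yeast proteins, fused downstream of GFP on a Cherry-expressing plasmid and carried in yeast as a pooled library. Mid-log cultures in leucine-free medium were sorted into four equal gates by GFP/Cherry ratio, and each gate's plasmids were PCR-amplified and Illumina-sequenced.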
Sequence,protein stability index (doa10∆),protein stability index (pdr5∆),protein stability index (san1∆),protein stability index (ubr1∆)
DLSRNGRNGSNGNDESS [NUT1],3.19 ± 0.078,3.33 ± 0.09,3.18 ± 0.059,3.14 ± 0.068
CWAVRADVHFLDCDGGF [RRP45],2.31 ± 0.2,2.65 ± 0.14,2.9 ± 0.085,2.72 ± 0.064
SEDSAVFKATSSTDEES [FAS1],3.03 ± 0.1,3.21 ± 0.11,2.93 ± 0.073,2.98 ± 0.067
LISRLCPNSTGAELRSV [RPT1],1.85 ± 0.043,1.77 ± 0.047,1.84 ± 0.073,1.73 ± 0.042
EEASQQQQLQQNSKEKN [MED2],2.85 ± 0.092,2.85 ± 0.086,2.92 ± 0.071,2.83 ± 0.065
IVVMDCFNLPVVGTETR [RRI1],2.24 ± 0.13,2.66 ± 0.12,2.29 ± 0.17,
NLKLISVSLVDEFPSEL [SIR4],2.57 ± 0.061,2.6 ± 0.052,2.5 ± 0.06,2.6 ± 0.033
TSLSSKDLSNYRKTEGI [YMR153W/NUP53],3.12 ± 0.088,3.25 ± 0.085,3.24 ± 0.062,3.35 ± 0.043
KKVNYKVTSYDITGDIR [ISW2],2.72 ± 0.058,2.51 ± 0.055,2.83 ± 0.068,2.67 ± 0.051
EILILINDPTNKEYTLV [SIN4],1.77 ± 0.072,2.05 ± 0.067,2.06 ± 0.1,2.23 ± 0.14
ESKLKIDPDTKAPNAVV [RPB11],2.24 ± 0.2,2.56 ± 0.22,2.62 ± 0.11,2.92 ± 0.14
HFTEIKLNKVDKNELQQ [SIR3],2.86 ± 0.056,2.88 ± 0.056,3 ± 0.04,3.07 ± 0.049
AWGALITTFVKRSTVPL [YML103C/NUP188],2.46 ± 0.07,2.88 ± 0.072,2.49 ± 0.076,2.33 ± 0.12
ADNKEDVKKPFSFGTSQ [YLR335W/NUP2],3.42 ± 0.1,3.09 ± 0.096,2.75 ± 0.16,3.13 ± 0.099
FNLISNAGTEKEKESKK [YLR335W/NUP2],3.41 ± 0.077,3.35 ± 0.063,3.44 ± 0.044,3.45 ± 0.068
SFKYLSNNDEDDKDCTI [RGR1],2.51 ± 0.05,2.41 ± 0.04,2.18 ± 0.055,2.62 ± 0.034
EKIDGMDVDSVKTTLVS [RPC82],2.54 ± 0.11,2.78 ± 0.12,2.73 ± 0.11,2.1 ± 0.29
AIQLDYSTANEYIIAAI [RPN3],2.24 ± 0.058,2.09 ± 0.073,2.32 ± 0.094,2.47 ± 0.056
QGKHTKFENDELAESTT [LRP1],3.75 ± 0.23,2.88 ± 0.12,3.12 ± 0.079,3.21 ± 0.077
GMPNMPGMPNMPGMPNM [SRP54],3.37 ± 0.088,3.21 ± 0.064,3.13 ± 0.061,3.14 ± 0.051
HDVLQKLNTLSEILSFD [YML103C/NUP188],2.99 ± 0.068,3.2 ± 0.067,3.03 ± 0.051,3.14 ± 0.041
LLMRLEGNYRNLNNLKQ [RPB8],3.29 ± 0.14,3.13 ± 0.13,3.22 ± 0.2,3.37 ± 0.082
IDDVQTIKVVKRSMDAE [RPP1],3.18 ± 0.054,2.89 ± 0.057,3.06 ± 0.039,3 ± 0.051
IYKPLLFEIVSNADTNQ [SRB8],1.71 ± 0.06,2.11 ± 0.066,2.33 ± 0.09,1.49 ± 0.078
MSLRHFGHLMHYGNEHI [RPN1],1.47 ± 0.04,1.38 ± 0.039,1.4 ± 0.066,1.33 ± 0.032

Sequence,protein stability index (doa10∆),protein stability index (pdr5∆),protein stability index (san1∆),protein stability index (ubr1∆)
MINRLLLCALDRKDQDD [RPB2],1.86 ± 0.16,3.11 ± 0.1,2.11 ± 0.17,2.97 ± 0.067
IKRMAIRNIVEAAAVRD [RPS26A],1.29 ± 0.069,1.68 ± 0.097,1.83 ± 0.16,1.93 ± 0.055
LLTLTNAANVPVENIWA [RPP1A],2.12 ± 0.081,2.56 ± 0.13,2.48 ± 0.11,2.55 ± 0.094
KISGGNDKQGFPMKQGV [RPS6A],2.53 ± 0.071,2.83 ± 0.085,3.01 ± 0.059,2.85 ± 0.067
KMLMNLHKEQWQSGLKM [RPN11],2.14 ± 0.048,2.05 ± 0.04,2.4 ± 0.039,2.13 ± 0.035
FTLKQWNRLTISVTDTE [COR1],1.32 ± 0.049,1.22 ± 0.04,1.14 ± 0.072,1.12 ± 0.047
CLENARSQISEKDAKIN [SIR4],3.09 ± 0.078,3.23 ± 0.081,3.13 ± 0.066,2.98 ± 0.064
DRKIEFPPPSVAARAEI [RPT6],2.02 ± 0.094,2.36 ± 0.11,1.83 ± 0.096,1.39 ± 0.052
LEDPYKYHYKEEWLNTK [CSN9],2.88 ± 0.084,3.2 ± 0.083,2.83 ± 0.065,3.09 ± 0.072
SFVKETKLHSGDYGEEE [SRB8],3.61 ± 0.23,3.22 ± 0.13,,3.44 ± 0.1
EGNQIIVFVHSRKETSR [BRR2],2.01 ± 0.055,2.28 ± 0.054,1.8 ± 0.072,2.48 ± 0.05
DDHNGEVWSVSWNLTGT [YGL100W/SEH1],2.73 ± 0.069,3.04 ± 0.073,2.64 ± 0.096,2.73 ± 0.085
WDLSVEDALYLGKRSIL [PRE2],3.4 ± 0.06,3.34 ± 0.056,3.17 ± 0.064,3.39 ± 0.048
DDESEQISLNRLIDSMK [RRI1],3.03 ± 0.16,3.11 ± 0.28,,3.15 ± 0.14
RPQKLRASLVPGTVLIL [RPL6A],2.1 ± 0.066,2.32 ± 0.064,2.11 ± 0.077,2.45 ± 0.081
KKVQALQSDKNFLDNCL [ITC1],3.13 ± 0.084,2.83 ± 0.05,2.83 ± 0.046,3.05 ± 0.036
MEVLGIEAGRAALYKEV [RPO21],2.55 ± 0.14,2.9 ± 0.2,2.4 ± 0.16,2.76 ± 0.12
NRTFTDPPFRIEEQGWG [TAF14],3.11 ± 0.067,3.24 ± 0.057,3.11 ± 0.1,3.07 ± 0.054
TKIGAKRIHSVRTRGGN [RPS8A],2.84 ± 0.15,3.05 ± 0.11,2.93 ± 0.088,2.72 ± 0.12
ISNNLALVFAALEHLKN [SRP68],1.95 ± 0.051,1.8 ± 0.041,2.12 ± 0.052,2.09 ± 0.041
AKAGLTFPVGRVHRLLR [HTA1],2.03 ± 0.11,2.72 ± 0.14,2.01 ± 0.16,2.39 ± 0.12
GCSKICDLSSKFNKSKA [YCS4],3.08 ± 0.087,2.82 ± 0.093,3.16 ± 0.045,2.99 ± 0.057
PTPSVKTEPVGTGLQSY [RPC53],3.4 ± 0.25,3.23 ± 0.13,3.16 ± 0.1,3.25 ± 0.11
SQLPITPMTRISELPPQ [YGL172W/NUP49],2.35 ± 0.057,2.67 ± 0.047,2.13 ± 0.051,2.71 ± 0.041
HHDGKLWNLNAYRTDVI [PRP8],2.94 ± 0.082,3.28 ± 0.092,3.04 ± 0.074,3.07 ± 0.071
